Experimental data published in article PMC10373542 (Journal of Virology, 2023).

B1: 7D6 monoclonal antibody (antibody, V domains shown)
VH: EVQLQQSGAELVRPGASVKLSCTASGFNIKDTYIHWVKQRPEQGLEWIGRIDPGDGDTEYDPSFQGKATITADTSSNTAYLELSSLTSEDTAVYYCTRFYDYVDYGMDYWGQGTSVTVSS
VL: DIQMTQSPASLSASVGETVTITCRASGNIHNYLAWYQQKQGKSPQLLVYNAKTLADGVPSRFSGSGSGTQYSLKINSLQPEDFGSYYCQHFWSTPPWTFGGGTKLEVK
B2: COVOX-45 monoclonal antibody (antibody, V domains shown)
VH: QVQLVESGGGVVQPGRSLRLSCAASGFTFSTYAMHWVRQAPGKGLEWVAVLSYDGSNKYYADSVKGRFTISRDNSKNTLYLQMNSLRAEDTAVYYCAKGGSYAYYYYMDVWGKGTTVTVSS
VL: not shown
B3: S2H97 monoclonal antibody (antibody, V domains shown)
VH: QVRLVQSGAEVKKSGESLKISCKGSGYSFTSYWIGWVRQMPGKGLEWMGIIYPGDSDTRYSPSFQGQVTISADKSISTVYLQWSSLKASDTAMYYCARQWSHYTYDYYYWGQGTLVTISS
VL: QSVLTQPASVSGSPGQSITISCTGISSDVGGYNSVSWYQQHPGKAPKLMIYDVTNRPSGVSNRFSGSKSGNTASLTISGLQAEDEADYYCSSYTSSSTPPYVFGTGTKVSVL
B4: FD20 monoclonal antibody (antibody, V domains shown)
VH: QVQLQQSGAEVKKPGSSVKVSCKASGGTFSSYAFSWVRQAPGQGLEWMGRIIPILGIANYAQKFQGRVTITADISTSTAYMALSSLRSEDTAVYYCAKVEVNIGMDDYYYYYGMDVWGQGTTVTVSS
VL: not shown
B5: WRAIR-2057 monoclonal antibody (antibody, V domains shown)
VH: EVQLVQSGAEVKKPGESLKISCKGSGYSFISYWIAWVRQMPGKGLEWMGIIYPGDSDTTYSPSFQGQVTISADKSISTAYLQWSSLKASDTAIYYCARLLYYSDSSPLDSWGQGTLVTVSS
VL: DIQMTQSPSSLSASVGDRVTITCRASQSISTYLNWYQQKPGKAPNLLIYAASSLQSGVPSRFSGSGSGTDFTLTISSLQPEDFATYYCQQSHSTPRTFGPGTKVDIK
B6: WRAIR-2134 monoclonal antibody (antibody, V domains shown)
VH: EVQLVESGGGVVQPGRSLRLSCAASGFIFSSYGMYWVRQAPGKGLEWVAVIWYDGSNKYYADSVKGRFTISRDNSKNTLYLQMNSLRAEDTAVYYCARDLSSSSGWDDYYYYYGMDVWGQGTTVTVSS
VL: not shown
B7: N-612-056 monoclonal antibody (antibody, V domains shown)
VH: not shown
VL: DIQMTQSPSSLSASVGDRVTITCQASQDISNYLNWYQQKPGKAPKLLIYDASNLETGVPSRFSGSGSGTDFTFTISSLQPEDIATYYCQQDAGTPLTFGQGTKVEIK
B8: 6D6 monoclonal antibody (antibody, V domains shown)
VH: EVQLQQSGAELVKPGASVKLSCTTSGFNIIDTYMHWVKQRPEEGLEWIGGIDPVNGNSEYDPKFQDKATITADTSSNTAYLHLSRLTSEDTAVYYCASAHYYGSSSSFPYWGQGTDLVTVS
VL: DIVMTQSQKFMSTSVGDRVSVTCKASQNVGTHVAWYQQKPGQSPKALIYSASYRYSGVPDRFTGSGVGTDFTLTITNVQSEDLAEYFCQQYNSYFTFGSGTKLEIK
B9: X17 monoclonal antibody (antibody, V domains shown)
VH: QVQLQQSGAELARPGASVKLSCKASGYTFTFYWMQWLKQRPGQGLEWIGAIYPGDGDTRYTQRFKDKATLTADKSSSTAYIQLSSLASEDSAVYYCAGGEYDNYGFDYWGQGTTLTVSS
VL: DIQMTQTTSSLSASLGDRVTISCRASQDISNYLNWYQQKPDGTVKLLIYYTSRLHSGVPSRFSGSGSGTDYSLTISNLEQEDIATYFCQQGTTLPYTFGGGTKLEIK
B10: ION-300 monoclonal antibody (antibody, V domains shown)
VH: QVQLVQSGAEVKKPGESLKISCKGSGYSFTSYWIGWVRQMPGKGLEWMGIIYPGDSDTRYSPSFQGQVTISADKSISTAYLQWSSLKASDTAMYYCARHPSPYYYGSGSYSGGFDYWGQGTLVTVSS
VL: DIVMTQSPGTLSLSPGERATLSCRASQSVSSSYLAWYQQKPGQAPRLLIYGASTRATGIPARFSGSGSGTEFTLTISSLQSEDFAVYYCQQYDNWPLMHTFGQGTKLEIK
B11: Walter Reed Army Institute of Research 2063 (WRAIR-2063) monoclonal antibody, human IgG1 (antibody, V domains shown)
VH: EVQLVESGGGVVQPGRSLRLSCAASGFTFSSYGMHWVRQAPGKGLEWVAVIWYDGSNKYYADSVKGRFTISRDNSKNTLYLQMNSLRAEDTAVYYCARGPLGSNYFNYDAFDIWGQGTMVTVSS
VL: DVVMTQSPLSLPVTLGQPASISCRSSQSLEYSDGNTYLNWFQQRPGQSPRRLIYKVSKRDSGVPDRFSGSGSGSDFTLKISRVEAEDVGVYYCMQGTHWPLTFGGGTKVEIK

Experiments:
[1] = target: T1, SARS-CoV-2 WA-1 spike receptor binding domain (RBD) (SARS-CoV-2 WA-1 (S identical to …, UniProt P0DTC2)); test: BLI
[2] = target: T1, SARS-CoV-2 WA-1 spike receptor binding …; test: BLI; remark: listed apart in the source
[3] = target: T1, SARS-CoV-2 WA-1 spike receptor binding …; test: cell-based or functional assay

Row | Binder | fold higher rate of dissociation (koff) than with WRAIR-2063 [1] | Kd [2] | IC50 of neutralization of WA-1 pseudotyped virus on HEK293 cells expressing ACE2 [3]
1 | B1 | ~10 fold | 3.41 nM | 0.33 µg/mL
2 | B2 | ~10 fold | 4.43 nM | 0.32 µg/mL
3 | B3 | – | 0.9 nM | 0.31 µg/mL
4 | B4 | ~10 fold | 3.07 nM | 0.6 µg/mL
5 | B5 | ~10 fold | 6.3 nM | 1.85 µg/mL
6 | B6 | ~10 fold | 4.26 nM | 18.6 µg/mL
7 | B7 | ~10 fold | 6.31 nM | 4.47 µg/mL
8 | B8 | ~10 fold | 3.62 nM | 1.37 µg/mL
9 | B9 | ~10 fold | 4.72 nM | 2.27 µg/mL
10 | B10 | ~10 fold | 3.65 nM | 0.99 µg/mL
11 | B11 | – | – | 0.45 µg/mL
